{
  "source": "patent US12529083B2",
  "about": "“CYP76AD1-beta clade polynucleotides, polypeptides, and methods for producing betalains” (YEDA RESEARCH AND DEVELOPMENT CO. LTD., priority 2015, dated 2026)",
  "tested_on": "tyrosine hydroxylation to L-DOPA",
  "experiment": "Transient expression in N. benthamiana leaves, LC-MS detection of L-DOPA",
  "format": "in vivo, Nicotiana benthamiana",
  "conditions": "vector or gene infiltrated without BvDODA1, LC-MS",
  "protocol": "In all cases, agrobacteria were grown overnight in LB media and brought to a final O.D.600 0.2 in infiltration buffer. When co-infiltrated, agrobacteria carrying separate constructs were each brought to O.D.600 0.2 and mixed in a 1:1 ratio before infiltration. Tissues used for subsequent LC-MS analysis were sampled from leaves 7 days post infiltration. For LC-MS analysis of L-DOPA and betalains, 3-4 biological replicates for each experiment were sampled, each consisting of infiltrated tissues from 2-3 different leaves. For L-DOPA analysis, samples were extracted as described above and analyzed using a UPLC/PDA-MSMS instrument, where a UPLC separation module (Waters Acquity) was connected to a photodiode array detector (Waters Acquity 2996, 190-800 nm), and (on-line) to a triple quadrupole MS detector (Waters Xevo TQ MS), equipped with an ESI source. […] Samples were analyzed in positive ionization mode, using the following settings: capillary—2 kV, cone—26 eV, with two transitions 198.1>152.1 (collision—15 eV) and 198.1>181.1 (collision—10 eV) used for compound assignment. […]",
  "data": [
    {"molecule": "CYP76AD15: Mirabilis jalapa cytochrome P450, functional ortholog of CYP76AD6, catalyzing formation of L-DOPA from tyrosine (SEQ ID NO: 44) (protein, listed as Mirabilis jalapa) MENTMLGVILATIFLTFHIMKMLFSPSKVKLPPGPRPLPIIGNILELGDKPHRSFANLAKIHGPLVTLKLGSVTTIVVSSSEVAKEMFLKNDQPLANRTIPDSVRAGNHDKLSMSWLPVSPKWRNLRKISAVQLLSTQRLDASQAHRQAKIKQLIEYVKKCSKIGQYVDIGQVAFTTSLNLLSNTFFSKELASFDSDNAQEFKQLMWCIMEEIGRPNYADYFPILGYVDPFGARRRLSRYFDQLIEVFQVIIRERLTHDNNIVGNNNDVLATLLDLYKQNELTMDEINHLLVDIFDAGTDTTASTLEWAMSELIKNPHIMAKAQEEVRRATMSHGGATVAEIQESDINNLPYIQSIIKETLRLHPPTVFLLPRKADVDVQLFGYVVPKNAQVLVNLWAIGRDPNVWPDPEVFSPERFMDCEIDVKGRDFELLPFGAGRRICPGLSLAYRMLNLMLANMVHSFDWKLPGVENGSGSEMDSLDMDEKFGITLQKVQPLKVIPVSRK", "values": [
      {"measurement": "L-DOPA production", "value": "L-DOPA production when infiltrated alone"}
    ]}
  ]
}
